# In publication PMC10003157, “Structurally Different Yet Functionally Similar: Aptamers Specific for the Ebola Virus Soluble Glycoprotein and GP1,2 and Their Application in Electrochemical Sensing”:
# T1: SUDV sGP (Sudan virus (SUDV), UniProt Q7T9E0 33-324)
# T1 sequence: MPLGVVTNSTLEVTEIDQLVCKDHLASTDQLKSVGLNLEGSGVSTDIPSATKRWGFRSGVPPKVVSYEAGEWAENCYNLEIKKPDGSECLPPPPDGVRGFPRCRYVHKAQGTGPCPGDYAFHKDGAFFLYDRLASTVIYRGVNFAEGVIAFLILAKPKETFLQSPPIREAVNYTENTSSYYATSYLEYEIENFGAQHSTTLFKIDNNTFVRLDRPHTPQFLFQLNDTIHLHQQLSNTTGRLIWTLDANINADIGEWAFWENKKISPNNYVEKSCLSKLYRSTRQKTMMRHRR
# T2: His-Lcn2 (mouse, UniProt P11672 21-200)
# T2 sequence: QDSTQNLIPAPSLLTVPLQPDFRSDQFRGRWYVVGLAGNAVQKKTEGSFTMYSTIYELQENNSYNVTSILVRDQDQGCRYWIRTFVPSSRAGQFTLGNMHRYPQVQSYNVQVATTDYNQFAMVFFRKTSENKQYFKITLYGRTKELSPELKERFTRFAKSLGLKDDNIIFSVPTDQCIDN
# B1: NA53 (ssDNA)
# DNA: AGCAGCACAGAGGTCAGATGCCGTGCGGATGTACAGGGACTTGGATAGTTTCTGACCTATGCGTGCTACCGTGAA
# B2: 6022 (ssDNA)
# DNA: GCCTGTTGTGAGCCTCCTGTCGAACCCTATCTTGTTCATGCTATTCTCAATATTTTCGGTTCACTTACCGTCTGCCTTTGAGCGTTTATTCTTGTCTCCC
# B3: 70SGP2A (ssDNA)
# DNA: GCCTGTTGTGAGCCTCCTGTCGAACAACCACTCATATCTACTACATGACTTGCTCCATTCTGTTCTTTCT
# B4: 6020 (ssDNA)
# DNA: GCCTGTTGTGAGCCTCCTGTCGAACATACCGTTCCACCCACATTTCAACCTTCATCCATCCTATTATTAGCCCACTCTTGAGCGTTTATTCTTGTCTCCC
# B5: 6012 (ssDNA)
# DNA: GCCTGTTGTGAGCCTCCTGTCGAACGTATTTCTTGCTTCCTTCCTTGCCGCGCACATTGCAGTATAAGTACCTGTCGTTGAGCGTTTATTCTTGTCTCCC
# B6: 6011 (ssDNA)
# DNA: GCCTGTTGTGAGCCTCCTGTCGAACAACCACTCATATCTACTACATGACTTGCTCCATTCTGTTCTTTCTCTACGCATTGAGCGTTTATTCTTGTCTCCC
# B7: 5'thio-6011 (ssDNA)
# DNA: B6 DNA
# modifications: 5' thiol
# Legend:
# NGAL = NGAL (human, UniProt P80188 21-198); experiment: filter binding; with or without 10 mM DTT, no effect; NBB buffer; settings: protein: recombinant; label: 32P
# EBOV sGP [1] = target: T3, EBOV sGP (Zaire ebolavirus (EBOV), UniProt P60170); experiment: filter binding; settings: protein: recombinant; tags: C-terminal thrombin site + 6xHis; chain copies: 2; label: 5' 32P
# SUDV sGP [2] = target: T1, SUDV sGP; experiment: filter binding; settings: protein: commercial; chain copies: 2; label: 5' 32P
# His-Lcn2 = target: T2, His-Lcn2; experiment: filter binding; Nitrocellulose filter capture in PBS at 23-24 C (NA53 in NBB); EIS sensor in PBS with or without 10% serum; settings: protein: recombinant; tags: His; label: 5' 32P
# SUDV sGP [3] = target: T1, SUDV sGP; experiment: electrochemical impedance (NAAO sensor); PBS; same affinity as EBOV sGP; settings: protein: commercial; chain copies: 2
# EBOV sGP [4] = target: T3, EBOV sGP; experiment: electrochemical impedance (NAAO sensor); 10% human serum; settings: protein: recombinant; tags: C-terminal thrombin site + 6xHis; chain copies: 2
binder,measurement,setting,value
B1,binding result,NGAL,binds
B2,Kd,EBOV sGP [1],~23 nM
B3,Kd,EBOV sGP [1],27 ± 15 nM
B4,binding result,EBOV sGP [1],no binding
B5,Kd,EBOV sGP [1],27 ± 12 nM
same,Kd,SUDV sGP [2],151 ± 44 nM
B6,binding result,His-Lcn2,no binding
same,Kd,EBOV sGP [1],8.5 ± 3.2 nM
same,Kd,SUDV sGP [2],165 ± 44 nM
B7,binding result,SUDV sGP [3],binds
same,Kd,EBOV sGP [4],2.2 ± 0.75 nM
